{"source": "paper PMC4453921", "about": "“Crystal structure of caspase recruiting domain (CARD) of apoptosis repressor with CARD (ARC) and its implication in inhibition of apoptosis” (Scientific Reports, 2015)", "proteins": {"B1": {"name": "ARC CARD domain (amino acids 1-95), wild type (domain or fragment, human, UniProt O60936 1-95, looked up)", "chain": "MGNAQERPSETIDRERKRLVETLQADSGLLLDALLARGVLTGPEYEALDALPDAERRVRRLLLLVQGKGEAACQELLRCAQRTAGAPDPAWDWQH", "notes": "Apoptosis repressor with caspase recruiting domain (ARC), human (208 amino acids), CARD domain, amino acids 1-95; Expression and purification are said to be described in detail elsewhere; A selenomethionine-substituted form was made for SAD phasing; also called CARD domain of ARC; caspase recruiting domain of apoptosis repressor with CARD; not shown: His-tag, C-terminal, kept"}}, "target": "the molecule itself", "test": "SEC-MALS; Superdex 200 HR 10/30 equilibrated in appropriate buffer, coupled to three-angle light scattering and refractive index detectors, 0.2 ml/min", "data": [{"protein": "B1", "values": [{"measurement": "stoichiometry N", "value": 2}]}]}
